Experimental data: PMC10121219

Molecular target: insulin receptor ectodomain (UniProt P06213)
Assay: SPR; insulin receptor immobilised; svPDE flowed at 0.25, 0.5, 1.0, 2.0, 4.0 and 8.0 uM; KD by steady-state affinity model; apparent

snake venom phosphodiesterase (svPDE) from Naja atra (from UniProt A0A2D0TC04 1-830)
Kd: 1800 nM
